Assay results taken from US20250353917A1 (SYSTIMMUNE, published 2025).
Read-outs that look alike come from different tables or passages of the source.

Legend:
[1] = biological target: T1, soluble recombinant extracellular domain of human EGFR (human, UniProt P00533 25-645); assay: BLI (Octet), mAb on AHC sensors, soluble EGFR extracellular domain
T1 construct: extracellular domain
Procedure: (§1) Fc-containing protein was captured to anti-human Fc (AHC) sensor tips by loading for 180 seconds at 10 μg/ml. Alternatively, His-tagged proteins were covalently coupled at 10 ug/ml to AR2G tips using manufacturer protocol. After a 60-second baseline step, a 180- to 300-second association phase with serial dilutions (0-200 nM; 1:2.5 dilution factor) or a single 100 nM concentration of purified human EGFR in assay buffer (phosphate-buffered saline containing 0.1% BSA, 0.05% Tween20) was performed, followed by a 300- to 600—second dissociation phase in assay buffer. Regeneration was achieved using 10 mM glycine, pH 1.5. Binding curves were globally fit to a 1:1 model to extract the dissociation constants, KD. Binding kinetics for each protein were assessed in duplicate, with tabulated values reported as average±standard deviation.

[2] = biological target: T2, EGFR on BxPC-3 cells (UniProt P00533 25-1210, limits assumed); assay: cell-based or functional assay
[3] = biological target: T3, His-tagged human EGFR (human, UniProt P00533 25-645, limits assumed); assay: BLI (Octet), scFv-His coupled to AR2G sensors, His-tagged human EGFR in solution, 1:1 global fit
T3 construct: also called huEGFR
Procedure: as §1

[4] = biological target: T3, His-tagged human EGFR; assay: as above; remark: listed apart in the source
Procedure: as §1

[5] = biological target: T2, EGFR on BxPC-3 cells; assay: cell-based or functional assay; remark: listed apart in the source

B1: SI-79C3 (antibody, human IgG1, kappa, V domains shown)
VH: QVQLQQSGPGLVKPSETLSITCTVSGFSLTNYGVHWIRQAPGKGLEWLGVIWSGGNTDYNTPFTSRFTITKDNSKNQVYFKLRSVRADDTAIYYCARALTYYDYEFAYWGQGTLVTVSS
VL: EIVLTQSPSTLSVSPGERATFSCRASQSIGTNIHWYQQKPGKPPRLLIKYASESISGIPDRFSGSGSGTEFTLTISSVQSEDFAVYYCQQNNNWPTTFGPGTKLTVLR
notes: Humanized version H7 in IgG format; also called H7; humanized H7 mAb
In the case of B1, the Kd [1] is reported as 2.41 nM, the koff [1] is reported as 0.000812 s⁻¹ and the kon [1] is reported as 337000 M⁻¹ s⁻¹.

B2: SI-68P17 (other)
heavy: DVVMTQSPSTLSASVGDRVTINCQASESISSWLAWYQQKPGKAPKLLIYEASKLASGVPSRFSGSGSGTEFTLTISSLQPDDFATYYCQGYFYFISRTYVNSFGGGTKVEIKGGGGSGGGGSGGGGSGGGGSEVQLVESGGGLVQPGGSLRLSCAASGFTISTNAMSWVRQAPGKGLEWIGVITGRDITYYASWAKGRFTISRDNSKNTLYLQMNSLRAEDTAVYYCARDGGSSAITSNNIWGQGTLVTVSSGGGGSGGGGSQVQLQQSGPGLVKPSETLSITCTVSGFSLTNYGVHWIRQAPGKGLEWLGVIWSGGNTDYNTPFTSRFTITKDNSKNQVYFKLRSVRADDTAIYYCARALTYYDYEFAYWGQGTLVTVSSASTKGPSVFPLAPSSKSTSGGTAALGCLVKDYFPEPVTVSWNSGALTSGVHTFPAVLQSSGLYSLSSVVTVPSSSLGTQTYICNVNHKPSNTKVDKRVEPKSCDKTHTCPPCPAPEAAGGPSVFLFPPKPKDTLMISRTPEVTCVVVDVSHEDPEVKFNWYVDGVEVHNAKTKPREEQYNSTYRVVSVLTVLHQDWLNGKEYKCAVSNKALPAPIEKTISKAKGQPREPQVYTLPPSRDELTKNQVSLSCAVKGFYPSDIAVEWESNGQPENNYKTTPPVLDSDGSFFLVSKLTVDKSRWQQGNVFSCSVMHEALHNHYTQKSLSLSPGGGGGSGGGGSDVVMTQSPSSVSASVGDRVTITCQASQNIRTYLSWYQQKPGKAPKLLIYAAANLASGVPSRFSGSGSGTDFTLTISDLEPGDAATYYCQSTYLGTDYVGGAFGGGTKLTVLGGGGSGGGGSGGGGSGGGGSEVQLVESGGGLVQPGGSLRLSCTASGFTISSYHMQWVRQAPGKGLEYIGTISSGGNVYYASSARGRFTISRPSSKNTVDLQMNSLRAEDTAVYYCARDSGYSDPMWGQGTLVTVSS
light: ENVLTQSPASLSASPGERVTITCSASSSVSYMHWYQQKPGQAPKLWIYDTSKLASGVPSRFSGSGSGNDHTLTISSMEPEDFATYYCFQGSVYPFTFGQGTKVTVLGGGGSGGGGSGGGGSGGGGSQVTLKESGPGLVQPGQTLSLTCAFSGFSLSTSGMGVGWIRQPPGKGLEWLAHIWWDDDKRYNPALKSRLTISKDTSKNQVYLQMNSLDAEDTAVYYCARMELWSYYFDYWGQGTLVTVSSGGGGSGGGGSEIVLTQSPSTLSVSPGERATFSCRASQSIGTNIHWYQQKPGKPPRLLIKYASESISGIPDRFSGSGSGTEFTLTISSVQSEDFAVYYCQQNNNWPTTFGPGTKLTVLRTVAAPSVFIFPPSDEQLKSGTASVVCLLNNFYPREAKVQWKVDNALQSGNSQESVTEQDSKDSTYSLSSTLTLSKADYEKHKVYACEVTHQGLSSPVTKSFNRGECGGDKTHTCPPCPAPEAAGGPSVFLFPPKPKDTLMISRTPEVTCVVVDVSHEDPEVKFNWYVDGVEVHNAKTKPREEQYNSTYRVVSVLTVLHQDWLNGKEYKCAVSNKALPAPIEKTISKAKGQPREPQVYTLPPSRDELTKNQVSLWCLVKGFYPSDIAVEWESNGQPENNYKTTPPVLDSDGSFFLYSKLTVDKSRWQQGNVFSCSVMHEALHNRFTQKSLSLSPGGGGGSGGGGSDIQMTQSPSTLSASVGDRVTITCQASQSISSHLNWYQQKPGKAPKLLIYKASTLASGVPSRFSGSGSGTEFTLTISSLQPDDFATYYCQQGYSWGNVDNVFGGGTKVTVLGGGGSGGGGSGGGGSGGGGSEVQLLESGGGLVQPGGSLSLSCAASGFSFSSGYDMCWVRQAPGKGLEWIACIAAGSAGITYDANWAKGRFTISRDNSKNTLYLQMNSLRAEDTAVYYCARSAFSFDYAMDLWGQGTLVTVSS
With B2 the “TDCC EC50 (pM)” value [2] was 0.322 pM.

B3: SI-68P13 (other)
heavy: EIVLTQSPSTLSVSPGERATFSCRASQSIGTNIHWYQQKPGKPPRLLIKYASESISGIPDRFSGSGSGTEFTLTISSVQSEDFAVYYCQQNNNWPTTFGPGTKLTVLGGGGSGGGGSGGGGSGGGGSQVQLQQSGPGLVKPSETLSITCTVSGFSLTNYGVHWIRQAPGKGLEWLGVIWSGGNTDYNTPFTSRFTITKDNSKNQVYFKLRSVRADDTAIYYCARALTYYDYEFAYWGQGTLVTVSSGGGGSGGGGSEVQLVESGGGLVQPGGSLRLSCAASGFTISTNAMSWVRQAPGKGLEWIGVITGRDITYYASWAKGRFTISRDNSKNTLYLQMNSLRAEDTAVYYCARDGGSSAITSNNIWGQGTLVTVSSASTKGPSVFPLAPSSKSTSGGTAALGCLVKDYFPEPVTVSWNSGALTSGVHTFPAVLQSSGLYSLSSVVTVPSSSLGTQTYICNVNHKPSNTKVDKRVEPKSCDKTHTCPPCPAPEAAGGPSVFLFPPKPKDTLMISRTPEVTCVVVDVSHEDPEVKFNWYVDGVEVHNAKTKPREEQYNSTYRVVSVLTVLHQDWLNGKEYKCAVSNKALPAPIEKTISKAKGQPREPQVYTLPPSRDELTKNQVSLSCAVKGFYPSDIAVEWESNGQPENNYKTTPPVLDSDGSFFLVSKLTVDKSRWQQGNVFSCSVMHEALHNHYTQKSLSLSPGGGGGSGGGGSDVVMTQSPSSVSASVGDRVTITCQASQNIRTYLSWYQQKPGKAPKLLIYAAANLASGVPSRFSGSGSGTDFTLTISDLEPGDAATYYCQSTYLGTDYVGGAFGGGTKLTVLGGGGSGGGGSGGGGSGGGGSEVQLVESGGGLVQPGGSLRLSCTASGFTISSYHMQWVRQAPGKGLEYIGTISSGGNVYYASSARGRFTISRPSSKNTVDLQMNSLRAEDTAVYYCARDSGYSDPMWGQGTLVTVSS
light: ENVLTQSPASLSASPGERVTITCSASSSVSYMHWYQQKPGQAPKLWIYDTSKLASGVPSRFSGSGSGNDHTLTISSMEPEDFATYYCFQGSVYPFTFGQGTKVTVLGGGGSGGGGSGGGGSGGGGSQVTLKESGPGLVQPGQTLSLTCAFSGFSLSTSGMGVGWIRQPPGKGLEWLAHIWWDDDKRYNPALKSRLTISKDTSKNQVYLQMNSLDAEDTAVYYCARMELWSYYFDYWGQGTLVTVSSGGGGSGGGGSDVVMTQSPSTLSASVGDRVTINCQASESISSWLAWYQQKPGKAPKLLIYEASKLASGVPSRFSGSGSGTEFTLTISSLQPDDFATYYCQGYFYFISRTYVNSFGGGTKVEIKRTVAAPSVFIFPPSDEQLKSGTASVVCLLNNFYPREAKVQWKVDNALQSGNSQESVTEQDSKDSTYSLSSTLTLSKADYEKHKVYACEVTHQGLSSPVTKSFNRGECGGDKTHTCPPCPAPEAAGGPSVFLFPPKPKDTLMISRTPEVTCVVVDVSHEDPEVKFNWYVDGVEVHNAKTKPREEQYNSTYRVVSVLTVLHQDWLNGKEYKCAVSNKALPAPIEKTISKAKGQPREPQVYTLPPSRDELTKNQVSLWCLVKGFYPSDIAVEWESNGQPENNYKTTPPVLDSDGSFFLYSKLTVDKSRWQQGNVFSCSVMHEALHNRFTQKSLSLSPGGGGGSGGGGSDIQMTQSPSTLSASVGDRVTITCQASQSISSHLNWYQQKPGKAPKLLIYKASTLASGVPSRFSGSGSGTEFTLTISSLQPDDFATYYCQQGYSWGNVDNVFGGGTKVTVLGGGGSGGGGSGGGGSGGGGSEVQLLESGGGLVQPGGSLSLSCAASGFSFSSGYDMCWVRQAPGKGLEWIACIAAGSAGITYDANWAKGRFTISRDNSKNTLYLQMNSLRAEDTAVYYCARSAFSFDYAMDLWGQGTLVTVSS
For B3, the “TDCC EC50 (pM)” value [2] was 0.259 pM.

B4: SI-79R2 (scFv)
scFv: EIVMTQSPSTLSASVGDRVIITCRASQSIGTNIHWYQQKPGKAPKLLIYYASESISGIPSRFSGSGSGAEFTLTISSLQPDDFATYYCQQNNNWPTTFGQGTKLTVLGGGGSGGGGSGGGGSGGGGSEVQLVESGGGLVQPGGSLRLSCTVSGFSLTNYGVHWVRQAPGKGLEWVGVIWSGGNTDYNTPFTSRFTISRDTSKNTVYLQMNSLRAEDTAVYYCARALTYYDYEFAYWGQGTLVTVSSGSHHHHHH
notes: the entry holds the whole construct; also called H1 scFv-6His; humanized scFv
In the case of B4, the Kd [3] is reported as 12 nM, the koff [3] is reported as 0.0107 s⁻¹ and the kon [3] is reported as 894000 M⁻¹ s⁻¹. It also gave a Kd [4] of 12 nM.

B5: SI-79X3 (bispecific antibody, human IgG1, kappa)
heavy 1: QVQLQQSGPGLVKPSETLSITCTVSGFSLTNYGVHWIRQAPGKGLEWLGVIWSGGNTDYNTPFTSRFTITKDNSKNQVYFKLRSVRADDTAIYYCARALTYYDYEFAYWGQGTLVTVSSASTKGPSVFPLAPSSKSTSGGTAALGCLVKDYFPEPVTVSWNSGALTSGVHTFPAVLQSSGLYSLSSVVTVPSSSLGTQTYICNVNHKPSNTKVDKRVEPKSCDKTHTCPPCPAPEAAGAPSVFLFPPKPKDTLMISRTPEVTCVVVDVSHEDPEVKFNWYVDGVEVHNAKTKPREEQYNSTYRVVSVLTVLHQDWLNGKEYKCAVSNKALPAPIEKTISKAKGQPREPQVYTLPPSRDELTKNQVSLTCLVKGFYPSDIAVEWESNGQPENNYKTTPPVLDSDGSFFLYSRLTVDKSRWQQGNVFSCSVMHEALHNHYTQKSLSLSPG
heavy 2: not shown
light 1: EIVLTQSPSTLSVSPGERATFSCRASQSIGTNIHWYQQKPGKPPRLLIKYASESISGIPDRFSGSGSGTEFTLTISSVQSEDFAVYYCQQNNNWPTTFGPGTKLTVLRTVAAPSVFIFPPSDEQLKSGTASVVCLLNNFYPREAKVQWKVDNALQSGNSQESVTEQDSKDSTYSLSSTLTLSKADYEKHKVYACEVTHQGLSSPVTKSFNRGEC
light 2: not shown
With B5 the “*EC50 (pM), TDCC, depletion of luciferized BxPC3 cells with activated T cells” value [5] was 20.3 pM.
